T1: TIM-3 ECD (extracellular domain of T cell immunoglobulin and mucin domain 3 protein) (UniProt Q8TDQ0 22-202, limits assumed)
T1 construct: extracellular domain; also called CD366
T1 sequence (looked up): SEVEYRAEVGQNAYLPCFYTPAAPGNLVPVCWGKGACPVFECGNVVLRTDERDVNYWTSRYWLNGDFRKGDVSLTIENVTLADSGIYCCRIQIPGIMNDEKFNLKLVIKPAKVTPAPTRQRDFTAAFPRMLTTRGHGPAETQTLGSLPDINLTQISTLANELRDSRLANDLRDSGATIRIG


Target: T1, TIM-3 ECD (extracellular domain of T …)
Test: adsorption ELISA on TIM-3 ECD, serial dilutions of purified mAb, estimate of binding affinity
Protocol: Purified mAbs were tested in adsorption ELISA using TIM-3 ECD, generated by Trellis in mammalian cells.

Binder | Affinity [nM]
TRL6099 (antibody, V domains shown, Lambda light chain) VH: QVQLVESGAEVKKPGASVKVSCKAFNYTFTSYGISWVRQTPEHGLEWMGWITNSNSNSAQKFQGRVSMTTDTSTSTAYMQLRSLSSDDTAVYYCARIYIDYNNYGLDVWGQGTTVTVSS VL: not shown | 0.011
TRL6120 (antibody, V domains shown, Lambda light chain; also called TIM-3 TRLmAb 6120) VH: QVQLVESGGGVVQPGRSLRLSCVASGFIFRTYAMHWVRQAPGKGLEWVAVIWPDGSERYYSDSTKGRFTVSRDNSKNTLFLQMNSLRVDDTAMYYCFARGYSDSDYADHWGRGTRVTVSS VL: DIVMTQSPSVSVSPGQTARITCSGDALSTKFAYWYQQKSGQAPVLVIYEDNKRPSGIPERFSGSGSGTMATLSVSEAQVEDEADYYCFSSDSSGNLFMFGGGTKLTVL | 28

The remaining lines, values ahead:

Affinity [nM] | Binder
0.005 | TRL6061 (antibody, V domains shown, Lambda light chain) VH: QVQLVESGGGVVQPGRSLRLSCAASGFMFSTSAMHWVRQTPGKGLEWLAVIWHDGSEKYYADSVKGRFSISRDNYRDTLYLQMNNLRVEDTAIYYCRGGDVYEIWGQGTMVAVSS VL: DDIMLTQPPSVSVSPGQTARITCSGDAVAKRYVYWYQQKSGQAPVLVMYEDNKRPSGIPERFSGSSSGTKATLTITGALVEDEADYYCYSTDSSGNLGAFGGGSKLTVL
5 | TRL6042 (antibody, V domains shown, Native human mAb produced recombinantly; Kappa light chain; also called TIM-3 TRLmAb 6042) VH: QVQLVESGAEVKKPGESLKISCEGSGYKFTSYWIGWVRQMPGRGPEWMGLIYPSDSDTRYSPSFRGQVTISVDKTISTAYLQWSSLKTSDTAIYYCARLLLATECTSDSCFGDAFDIWGQGTMVTVSS VL: DIVLTQSPTFLSASVGDRVTITCRASQGISSYLAWYQQKPGKAPKLLLYAASTLQSGVPSRFSGSRSGTEFTLTISSLQPEDFASYYCQQFHNYPFTFGGGTKVEIKR
